According to paper PMC11840924, “Identifying Allosteric Hotspots in Mycobacterium tuberculosis cAMP Receptor Protein through Structural Homology” (Biochemistry, 2025):

Assays:
[1] = molecular target: T1, cAMP receptor protein from Mycobacterium tuberculosis (CRPMTB), wildtype (Mycobacterium tuberculosis), P9WMH3; test: SEC; details: remark: other sources report otherwise
T1 chain: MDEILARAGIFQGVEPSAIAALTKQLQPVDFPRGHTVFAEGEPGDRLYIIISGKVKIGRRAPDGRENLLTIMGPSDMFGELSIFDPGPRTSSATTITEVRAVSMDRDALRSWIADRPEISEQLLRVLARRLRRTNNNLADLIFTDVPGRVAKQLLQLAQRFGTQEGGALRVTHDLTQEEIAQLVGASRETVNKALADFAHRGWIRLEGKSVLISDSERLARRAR

[2] = molecular target: T1, cAMP receptor protein from …; test: fluorescence polarisation; fluorescence anisotropy, stoichiometric titration; CRPMTB titrated into 200 nM fluorescein-labelled 32-bp serC promoter DNA; 75 mM KCl, 50 mM HEPES, 1 mM EDTA, pH 7.6; 0 mM cAMP; details: remark: other sources report otherwise
[3] = molecular target: T1, cAMP receptor protein from …; test: fluorescence polarisation; fluorescence anisotropy; CRPMTB titrated into 3 nM fluorescein-labelled 32-bp serC promoter DNA (full site); 75 mM KCl, 50 mM HEPES, 1 mM EDTA, pH 7.6; 1 mM cAMP; second transition read as high-order oligomers on DNA; apparent; details: remark: other sources report otherwise
[4] = molecular target: T1, cAMP receptor protein from …; test: fluorescence polarisation; fluorescence anisotropy; CRPMTB titrated into 3 nM fluorescein-labelled 32-bp serC promoter DNA (full site); 75 mM KCl, 50 mM HEPES, 1 mM EDTA, pH 7.6; 0 mM cAMP; second transition ([CRP] > 100 nM) read as free CRPMTB joining the specific CRPMTB-DNA complex (high-order oligomers on DNA); apparent; details: remark: other sources report otherwise
[5] = molecular target: the molecule itself; test: SEC
[6] = molecular target: T2, CRPMTB A61H (Mycobacterium tuberculosis, UniProt P9WMH3 1-224, A61H); test: fluorescence anisotropy; no cAMP; 75 mM KCl, 50 mM HEPES, 1 mM EDTA, pH 7.6; […]; temperature not stated; details: protein: recombinant; tags: His-tag (pET-3a); chain copies: 2; label: fluorescein; blunt
T2 sequence: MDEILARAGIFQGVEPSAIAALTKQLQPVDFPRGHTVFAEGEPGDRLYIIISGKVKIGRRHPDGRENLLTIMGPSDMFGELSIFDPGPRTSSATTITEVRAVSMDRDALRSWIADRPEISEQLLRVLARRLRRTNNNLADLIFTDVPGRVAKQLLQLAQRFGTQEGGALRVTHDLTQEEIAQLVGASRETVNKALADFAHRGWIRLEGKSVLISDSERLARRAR

[7] = molecular target: T3, CRPMTB T70F (Mycobacterium tuberculosis, UniProt P9WMH3 1-224, T70F); test: as above; details: protein: recombinant; tags: His-tag (pET-3a); chain copies: 2; label: fluorescein; blunt
T3 sequence: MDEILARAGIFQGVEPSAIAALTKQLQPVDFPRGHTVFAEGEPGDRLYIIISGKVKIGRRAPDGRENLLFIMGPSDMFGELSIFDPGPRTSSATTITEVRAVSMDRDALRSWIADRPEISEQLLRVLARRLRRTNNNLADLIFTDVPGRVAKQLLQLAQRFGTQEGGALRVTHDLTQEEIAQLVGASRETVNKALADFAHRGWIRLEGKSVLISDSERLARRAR

[8] = molecular target: T4, CRPMTB D63H (Mycobacterium tuberculosis, UniProt P9WMH3 1-224, D63H); test: as above; details: protein: recombinant; tags: His-tag (pET-3a); chain copies: 2; label: fluorescein; blunt
T4 sequence: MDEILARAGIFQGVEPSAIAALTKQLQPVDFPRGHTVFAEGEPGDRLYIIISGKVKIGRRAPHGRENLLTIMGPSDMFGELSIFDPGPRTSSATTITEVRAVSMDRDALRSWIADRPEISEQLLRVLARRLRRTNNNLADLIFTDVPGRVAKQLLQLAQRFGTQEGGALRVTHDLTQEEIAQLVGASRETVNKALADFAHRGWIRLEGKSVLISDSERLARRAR

[9] = molecular target: T5, CRPMTB A61I (Mycobacterium tuberculosis, UniProt P9WMH3 1-224, A61I); test: as above; details: protein: recombinant; tags: His-tag (pET-3a); chain copies: 2; label: fluorescein; blunt
T5 sequence: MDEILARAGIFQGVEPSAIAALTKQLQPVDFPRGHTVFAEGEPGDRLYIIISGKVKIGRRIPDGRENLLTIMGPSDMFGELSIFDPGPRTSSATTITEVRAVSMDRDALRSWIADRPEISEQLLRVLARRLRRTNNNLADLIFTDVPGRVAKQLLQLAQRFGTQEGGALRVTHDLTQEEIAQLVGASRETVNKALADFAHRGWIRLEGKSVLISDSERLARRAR

[10] = molecular target: T2, CRPMTB A61H; test: fluorescence anisotropy; 1 mM cAMP; 75 mM KCl, 50 mM HEPES, 1 mM EDTA, pH 7.6; […]; temperature not stated; details: protein: recombinant; tags: His-tag (pET-3a); chain copies: 2; label: fluorescein; blunt
[11] = molecular target: T3, CRPMTB T70F; test: as above; details: protein: recombinant; tags: His-tag (pET-3a); chain copies: 2; label: fluorescein; blunt
[12] = molecular target: T4, CRPMTB D63H; test: as above; details: protein: recombinant; tags: His-tag (pET-3a); chain copies: 2; label: fluorescein; blunt
[13] = molecular target: T5, CRPMTB A61I; test: as above; details: protein: recombinant; tags: His-tag (pET-3a); chain copies: 2; label: fluorescein; blunt

B1: cAMP receptor protein from Mycobacterium tuberculosis (CRPMTB), wildtype, P9WMH3 (natural protein)
chain: MDEILARAGIFQGVEPSAIAALTKQLQPVDFPRGHTVFAEGEPGDRLYIIISGKVKIGRRAPDGRENLLTIMGPSDMFGELSIFDPGPRTSSATTITEVRAVSMDRDALRSWIADRPEISEQLLRVLARRLRRTNNNLADLIFTDVPGRVAKQLLQLAQRFGTQEGGALRVTHDLTQEEIAQLVGASRETVNKALADFAHRGWIRLEGKSVLISDSERLARRAR
B1 showed a stoichiometry N [1] of 2, a stoichiometry N [2] greater than 4 and an apparent K (1/[CRP]) at the boundary of oligomer formation on DNA [3] of 6e+06 M⁻¹. The apparent K (1/[CRP]) at the boundary of oligomer formation on DNA [4] was 1.5e+07 M⁻¹.

B2: CRPMTB D63H (natural protein)
chain: MDEILARAGIFQGVEPSAIAALTKQLQPVDFPRGHTVFAEGEPGDRLYIIISGKVKIGRRAPHGRENLLTIMGPSDMFGELSIFDPGPRTSSATTITEVRAVSMDRDALRSWIADRPEISEQLLRVLARRLRRTNNNLADLIFTDVPGRVAKQLLQLAQRFGTQEGGALRVTHDLTQEEIAQLVGASRETVNKALADFAHRGWIRLEGKSVLISDSERLARRAR
For B2, the “stoichiometry N” value [5] was 2.

B3: CRPMTB A61I (natural protein)
chain: MDEILARAGIFQGVEPSAIAALTKQLQPVDFPRGHTVFAEGEPGDRLYIIISGKVKIGRRIPDGRENLLTIMGPSDMFGELSIFDPGPRTSSATTITEVRAVSMDRDALRSWIADRPEISEQLLRVLARRLRRTNNNLADLIFTDVPGRVAKQLLQLAQRFGTQEGGALRVTHDLTQEEIAQLVGASRETVNKALADFAHRGWIRLEGKSVLISDSERLARRAR
With B3 the “stoichiometry N” value [5] was 2.

B4: CRPMTB T70F (natural protein)
chain: MDEILARAGIFQGVEPSAIAALTKQLQPVDFPRGHTVFAEGEPGDRLYIIISGKVKIGRRAPDGRENLLFIMGPSDMFGELSIFDPGPRTSSATTITEVRAVSMDRDALRSWIADRPEISEQLLRVLARRLRRTNNNLADLIFTDVPGRVAKQLLQLAQRFGTQEGGALRVTHDLTQEEIAQLVGASRETVNKALADFAHRGWIRLEGKSVLISDSERLARRAR
B4 was tested, and the “stoichiometry N” value [5] was 2.

B5: CRPMTB A61H (natural protein)
chain: MDEILARAGIFQGVEPSAIAALTKQLQPVDFPRGHTVFAEGEPGDRLYIIISGKVKIGRRHPDGRENLLTIMGPSDMFGELSIFDPGPRTSSATTITEVRAVSMDRDALRSWIADRPEISEQLLRVLARRLRRTNNNLADLIFTDVPGRVAKQLLQLAQRFGTQEGGALRVTHDLTQEEIAQLVGASRETVNKALADFAHRGWIRLEGKSVLISDSERLARRAR
With B5 the “stoichiometry N” value [5] was 2.

B6: serC32 full-site promoter (dsDNA)
DNA 1: GCGCGTAGTGTGAACAAGCTCACATGCAAGCC
DNA 2: GGCTTGCATGTGAGCTTGTTCACACTACGCGC
In the case of B6, the Ka [6] is reported as 4.03 ± 0.08 10^8 M-1, the Ka [7] is reported as 4.42 ± 0.04 10^8 M-1 and the Ka [8] is reported as 4.53 ± 0.04 10^8 M-1. The Ka [9] was 2.71 ± 0.02 10^8 M-1, the Ka [10] was 2.95 ± 0.05 10^8 M-1 and the Ka [11] was 2.75 ± 0.02 10^8 M-1. For the same binder, the Ka [12] was 4.66 ± 0.06 10^8 M-1 and the Ka [13] was 3.57 ± 0.03 10^8 M-1.
